test system: HEK293T; test: median enrichment of reporter reads in eGFP-reduced (low/intermediate) vs eGFP-high sorted cells (eGFP-extension fusion abundance) (ratio); higher = stronger loss of eGFP-fusion protein abundance (more destabilising extension)
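Further: lentiviral eGFP-IRES-mCherry reporter pool sorted by FACS 96 h post-transduction, gated on mCherry-high cells, Illumina read counts normalized per million, median across four biological replicates.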

| Substance | median enrichment |
| --- | --- |
| LRASPRRDGKKIYKYISF [CYP2U1] | 7.5 |
| LFQPGPKPTGVCGRARTQEV [DNMT3B] | 3.86 |
| QPETGGSPPARSGASSCQSSWCYPLNPSAATATVGLRVSEQERKDKLFVVPTMLRFGNPGVFPGGLRKQSL [TNFAIP3] | 4.84 |
| SDQAVLEDRQIYTPHTHTTYTTHTRSHPLTHTLHRLLPYSWTFI [BMP4] | 9.46 |
| YKLVLCSG [ZDBF2] | 6.14 |
| RRKCLLPW [PKD1L2] | 1.93 |
| CQFKEKKM [PHTF2] | 0.408 |
| YLCISRAHTYIVAYSQHGSRPALLI [RANBP9] | 2.61 |
| QHEKDWGGQGGQPAEMRGAGGHSPFSGLDPLRSSPTSCTDNAL [MAP3K9] | 0 |
| LRPGHPDVLLKGAPRAGRGL [CBLC] | 1.91 |
| WSPTRPERPEMVLTMLPANRSRKPACE [ANXA2] | 1.38 |
| LNGSHSVTQAGVKWPNHSSLQPQPGRFR [COX17] | 8.21 |
| QQQQ [Gln04] | 0.501 |
| RPCAEALPGFTQLMDSSVLTLSTTPFTSLFDFRSYRHCLR [GINS1] | 7.78 |
| YFNLCNLTNFHDK [NUP107] | 9.37 |
| YDPCGRPLPPSHRLPHHSCLVLGRPHCALALGLPSLLQQGTGALARVTD [GTF3C1] | 6.87 |
| GSPLCLGLLLPREFSPLTYPHLSGLTGRNHCTTERGWDGPASCLWEKTSCLGRGLCLVKVPTGNP [ITGAX] | 5.38 |
| LLLPRSWATP [CEP72] | 4.2 |
| EPVKNHAKAKTRSAERAHGSSRLVGDQAHLICTNCSTC [OCSTAMP] | 3.35 |
| WALGLKSQLFLSCSV [DIRAS3] | 35.7 |
| REVYLKKKSETDTSNPAVTTTPTTYVHMTNNFQVGFS [KCNH1] | 4.02 |
| QNRIEQNRIE [PCSK5] | 0.813 |
| PGLTALRSARRARAETRVGCGELKEPIKSCSSTQNEPCSRHLPMLRDAWSVLGARPGAAACPTPPEEADPDRYLTTFFFFFFF [UQCC3] | 5.28 |

| Substance | median enrichment |
| --- | --- |
| FILERNSTNVKNVTKLLSISLTLLHIRKFILEKNPTDVKNVAKPLSTPLNLLHIRDFILERNPTDVNNVVKLFTYPHTLLHIR [ZNF626] | 8.24 |
| LNLKKSFQ [CCDC160] | 1.05 |
| GWVRISTTFLDTVK [HBS1L] | 11.5 |
| RGDAVGLAEPRFSHQQGECWPDTSEDPGLVIICLGGTG [GMPPB] | 7.69 |
| VVVVVVVVV [Val09] | 8.21 |
| YTCGEGLSWTRPLPTASSLQVQLKPLSSGGRHVERAGRPTAAENRAGTGSSCSAFPSFGDAGSAAPKHLPAPHSTVSEDSSLL [CDC14B] | 0.953 |
| WGPGSLHASALAPAGSKHRACPPHPEDLRAMPVPPHAGGCLGHLPAH [RHPN1] | 3.51 |
| VSHAYAHAQPPSGSLESRADTHSHTHCLAKNTPCLPCHSPHSHSLSPDPCLSLDCRGTTHLFGIQGPQPTVPSPINCSRAPHK [FOXP3] | 2.58 |
| YSQERWKQVTSTIA [OR5K1] | 7.21 |
| YGSAKSLWDWKSGPGLPDRQPEDLPSTMHHGRGRSMKN [SLC39A14] | 0.591 |
| RGLLALTLQPTLAVWPSPGSFPAPLPLFPVLLNSPSWRVQALGMGGTRPHSFHRALRPDTADQPHSAQEAASGVGAQRGTAAS [BAP1] | 2.63 |
| YNQGSVTPCHAPTVEIPPLLKFFMVVSLPGSLMLS [KCNS1] | 11.7 |
| SIVLSTNLKSKGSSQSQPLCP [HIST1H3E] | 3.49 |
| SSMMHGDFHFHIFPFFCFCFSRNGGNPVYSMPVLSYSSLLLYILLLYQKN [HIVEP2] | 33.7 |
| YVYLFLQEI [PI15] | 4.25 |
| SKRGHMESGGHLDD [PTGR1] | 0.345 |
| SLEWTTAKLAPSSDRKPPCVGDCRHAK [TM9SF4] | 1.73 |
| YIMYYPDLVGKVLS [OPRM1] | 11.7 |
| RPSGPPLPLGQGNQLLRDFSCLEGAVIAPPHCPTVLLGL [FBXW4] | 4.69 |
| HHHHHHHHHH [His10] | 0.464 |
| SPLL [PIK3C2G] | 0.449 |
| WQAAGAWGLHWLPPAP [HNF4A] | 5.96 |
| WDSSQFERQ [MYCBP] | 0.249 |
